Series [1] concerns the molecule itself. The series can be described thus: dynamic light scattering; 0.5 mg/mL (58.7 µM) NTD in 5 mM sodium phosphate buffer, 50 mM NaCl, 1 mM DTT, pH 7.4, 25 °C, no urea; hydrodynamic diameter compared with values calculated for monomer and dimer.
Series [2] deals with the molecule itself. The series can be described thus: SEC; analytical gel filtration, Superdex 200 Increase 10/300 GL, 4 °C, 5 mM phosphate buffer, 50 mM NaCl, pH 7.4, without DTT; 100 µL of 0.5 mg/mL (58.7 µM) NTD loaded; masses from a calibration curve; also run with 150 mM NaCl without DTT.

B1: N-terminal domain of human TDP-43 (NTD_(1–77)) (domain or fragment, UniProt Q13148 1-77, looked up)
chain: MSEYIRVTEDENDEPIEIPSEDDGTVLLSTVTAQFPGACGLRYRNPVSQCMRGVRLVEGILHAPDAGWGNLVYVVNY
notes: devoid of any tag; calculated mass 8.53 kDa; Cloning, expression and purification are told only in the Supplementary Materials; also called NTD TDP-43; wild-type protein; source: purified as described in the Supplementary Materials (>95% pure)
Take B1: the “stoichiometry N” value in series [1] is 2; in series [2], 4.

The values are drawn from publication PMC7504384, “Insight into the Folding and Dimerization Mechanisms of the N-Terminal Domain from Human TDP-43” (International Journal of Molecular Sciences, 2020).
